{"source": "patent US20180117171A1", "about": "“IMMUNOCONJUGATES FOR PROGRAMMING OR REPROGRAMMING OF CELLS” (President and Fellows of Harvard College, priority 2015, published 2018)", "molecules": {"B1": {"name": "ovalbumin: model antigen protein (protein, UniProt P01012 2-386, looked up)", "Ovalbumin": "GSIGAASMEFCFDVFKELKVHHANENIFYCPIAIMSALAMVYLGAKDSTRTQINKVVRFDKLPGFGDSIEAQCGTSVNVHSSLRDILNQITKPNDVYSFSLASRLYAEERYPILPEYLQCVKELYRGGLEPINFQTAADQARELINSWVESQTNGIIRNVLQPSSVDSQTAMVLVNAIVFKGLWEKAFKDEDTQAMPFRVTEQESKPVQMMYQIGLFRVASMASEKMKILELPFASGTMSMLVLLPDEVSGLEQLESIINFEKLTEWTSSNVMEERKIKVYLPRMKMEEKYNLTSVLMAMGITDVFSSSANLSGISSAESLKISQAVHAAHAEINEAGREVVGSAEAGVDAASVSEEFRADHPFLFCIKHIATNAVLFFGRCVSP"}, "B2": {"name": "CpG-OVA conjugate: OVA protein linked through maleimide to reduced thiol-CpG (conjugate, UniProt P01012 2-386, looked up)", "Ovalbumin": "B1 Ovalbumin", "modifications": "CpG oligonucleotide via maleimide linker"}}, "key": {"[1]": {"test_system": "antigen specific Th17 T cells", "experiment": "Th17 ELISpot of splenocytes challenged with MOG", "type": "in vivo", "conditions": "splenocytes of treated mice with EAE induced, MOG challenge", "text": "To further explore the mechanism for tolerance induction in EAE animals treated with bolus immunoconjugate, T cell analyses (ELISpot and passive EAE assays) were completed in mice that received the immunoconjugate or control therapies (FIG. 36A-C). Splenocytes from mice treated with MOG alone or Dex-MOG with EAE induced were challenged with MOG to quantitate antigen specific elaboration of IL-17."}, "[2]": {"test_system": "CD8+ T cells from OT-I mice", "experiment": "OT-I: DC co-culture, CFSE T cell proliferation", "type": "cell-based, mouse", "conditions": "dexamethasone-SIINFEKL 1.0 μM; ovalbumin 0.2 μM", "procedure": "Cytotoxic T-lymphocytes (CTLs) were purified using magnetic beads (Miltenyi Biotec) from the spleens of the T cell receptor (TCR) transgenic OT-I mice (Jackson Laboratories) following the manufacturer's protocol. OT-I mice express a transgenic T cell receptor that recognizes ovalbumin residues 257-264 in the context of H2Kb. The CTLs were cultured with a 1:1 ratio with BMDC for 3 days at 37° C. in R10 media. […] The cells were washed two times before culturing with the T cells. Dexamethasone-TRP-2 was made following the same solid phase method as described above (Peptide synthesizer: CS Bio, DIPEA, Piperidine, TFA, and NMP: Advanced ChemTech, DCM: Sigma, amino acids and resin: Peptides International, dexamethasone hemisuccinate: Steraloids). Three days later, the cells were harvested and analyzed by flow cytometry using the BD LSR II Fortessa. The plots for flow cytometry were obtained using FCS Express.\nCarboxyfluorescein succinimidyl ester (CFSE) labeled CD8+ T cells from TCR transgenic OT-I mice were cultured with BMDC for 3 days. […] Three days later, the cells were analyzed by flow cytometry."}, "[3]": {"test_system": "bone marrow derived dendritic cells (BMDC)", "experiment": "BMDC presentation of […] from CpG-OVA conjugate (flow cytometry)", "type": "cell-based", "conditions": "18 hours; compared to unconjugated CpG and OVA", "procedure": "CpG-OVA conjugate was cultured with bone marrow derived dendritic cells (BMDC) in vitro for 18 hours. BMDC presentation of […] was analyzed using flow cytometry and percentage of CD11c+ DCs presenting the […] peptide on the MHC-I molecule was quantified."}, "[4]": {"experiment": "release of conjugate from the MPS scaffold", "type": "physicochemical", "procedure": "FIG. 48 is a line graph showing the evaluation of the release kinetics of the GnRH-OVA conjugate from the MPS scaffold. The conjugate was loaded into the MPS scaffold for 8 hours at room temperature (RT).\nC57bl/6J mice were immunized with MPS scaffold containing 1 ug GM-CSF and 100 ug OVA, 1 ug GM-CSF, 100 ug CpG and 100 ug OVA (MPS vaccine) or 1 ug GM-CSF and 100 ug OVA conjugated to 100 ug CpG (MPS conjugate vaccine). After 7 days, peripheral blood was analyzed using […] tetramer and the percentage of […] specific T cells within CD3+CD8+ T cells was quantified. MPS conjugate vaccine increased the presence of […] specific CD8+ T cells by 2 fold compared with the MPS vaccine (FIG. 40, bottom)."}}, "data": [{"molecule": "MEVGWYRSPFSRVVHLYRNGK [MOG alone, myelin oligodendrocyte glycoprotein residues 35-55, reference compound]", "values": [{"measurement": "IL-17 spot forming cells", "setting": "[1]", "result": "230±10 spot forming cells per million"}]}, {"molecule": "B1", "values": [{"measurement": "OT-I T cell proliferation, BMDC pretreated with antigen", "setting": "[2]", "result": "initiated a stronger proliferative response"}]}, {"molecule": "B2", "values": [{"measurement": "CD11c+ DCs presenting SIINFEKL on MHC-I", "setting": "[3]", "result": "enhanced presentation"}, {"measurement": "release from the MPS scaffold", "setting": "[4]", "result": "released in a sustained manner followed by a burst release"}]}]}
